Consider four proteins from paper PMC2965237 (Nucleic Acids Research, 2010).

The series deals with the molecule itself. The series is described as follows: SEC. (In general: Size exclusion chromatography separates by hydrodynamic size, large species first.)

B1: RdgC Δfinger R118C (natural protein)
chain: not shown
Consider B1, for which the binding result was “binds”.

B2: RdgC Δfinger (P76G, Δ77–115, L116T) (natural protein)
chain: not shown
Regarding B2, the binding result is “binds”.

B3: RdgC protein (Escherichia coli), wild type (natural protein)
chain: not shown
One may read the stoichiometry N as the number of molecules, sites or subunits per partner or assembly. For B3, the “stoichiometry N” value turned out to be 2.

B4: RdgC R118C (natural protein)
chain: not shown
In the case of B4, the binding result is listed as “binds”.
